According to article PMC12846707, “Structural and Functional Analysis of Porcine CR1-like Proteins in C4b-Mediated Immune Responses” (Veterinary Sciences, 2025):

B1: Recombinant C4b α chain (domain or fragment)
chain: AMELLQEEELIEEDDIPVRSFFPENWLWRVEEVPHSLQLSLLLPDSLTTWEIHGVSLSKSTGLCVATPARVRVFREFHLHLRLPVSIHRFEQLELRPVLYNYLDKDVPVSVHVSPVEGLCLAGGGGLAQQVLVPAGSARPVGFSVVPISAAAVSLKVVARGSFDFPVGDAVSKILQIANEGAIHQEELVYALNPQNVLGRNLEIPGHSDPNVIPDGDFRSFVRLTASDPLDTLGSEGALSPGGLASLLRLPRGCAEQTMFYLAPTLAASRYLDKTEQWSTLPPETKDHAVDLIQKGYTRIQEFRKNDGSYGAWLHRESSTWLTAFVLKVLSLAQEQVGGSPEKLQETAAWLLLQQKEDGSFHDPCPVIHRDMQGGLVGNDEKVALTAFVVIALHHGLAVFQDRNAEQFKRVENAISTANDFLGEKVSSGLLGSHAAAISAYALSLSGAPEQLQDIAHNNLMAMAQKIGDHLFWGTVPSSQSNTLSPTPAPQRPTDPMPQAPALWIETTAYALLHLLIREGKAEMADQTASWLTRQGSYKGGFRSTQDTVIALDALSAYWILSHTTEEKELNVTLSSMSRGGFKSHVVRLTNHQVKGLEEELQFSLGSKINVKVGGNSKGTLKILRAYNVIDLKNTTCQDLQIEVTVKGHVEYMLEANEDYEEYEYEDLPAQDDPGAHSQPVTPLQLFDG
B2: Recombinant CR1-like CCPs 1-3 (domain or fragment)
chain: not shown

Tests used:
Test in all cases: SPR; Biacore 8K, single-cycle; C4bα and C4bβ covalently immobilised on CM5 chip (about 1500 RU); CR1-like fragments or mutant as mobile phase, 1.56 × 10^-2 to 4 μM; 25 °C; 10 mM HEPES pH 7.4, 150 mM NaCl, 0.05% Tween-20; apparent KD = kd/ka
Details in all cases: both partners purified
[1] = molecular target: T1, Recombinant CR1-like CCPs 12-14 (pig)
T1 construct: porcine CR1-like, CCP domains 12-14; Section 2.12 describes 6His-sumo (N-terminal) and flag (C-terminal) tags and insect cells for 'CR1-like fragments' in general

Recombinant C4b β chain = molecular target: T2, Recombinant C4b β chain (pig)
T2 construct: beta chain of porcine complement C4b, expressed as a separate chain; source: Escherichia coli (pET28a), purified (Ni-NTA, SP-HP cation exchange); not shown: 6His, N-terminal, kept; Flag-ppase, N-terminal, kept

Recombinant C4b α chain = molecular target: B1

Binder | Kd [1] | Kd (Recombinant C4b β chain) | Kd (Recombinant C4b α chain)
B1 | 317 nM |  | 
B2 |  | 173 nM | 226 nM
